Values quoted from earlier work, collected in PMC4610346.

Target: Jun leucine zipper (Homo sapiens) (UniProt P05412)
Sequence (P05412 277-311): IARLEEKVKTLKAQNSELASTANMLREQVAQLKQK

Sequence of Fos leucine zipper (P01100 162-196): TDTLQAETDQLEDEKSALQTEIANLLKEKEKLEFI

Kd: 54 nM
Substance: Fos leucine zipper (from UniProt P01100)
